Reference: patent publication US20250302947A1, “M-cell GP2-mediated lymphatic-targeted drug carriers” (Hong Kong Baptist University, priority 2022, published 2025)

How the values were obtained:
human GP2+M cells = experiment: Ligated loop assay on human distal ileum explants with PPs
Description: Twenty volunteers who needed surgery were enrolled in this study. The age of the participants ranged from 20 to 50 years. All distal ilea of the small intestine were collected after their surgeries. Twenty samples of the small intestine with PP were used in this study. In brief, the small intestines with PPs were stored in ice-cold PBS with 5% FBS after surgery. The small intestine segment was ligated with a surgical suture for the ligated loop assay. It then was injected with 10 ml FITC-RAP solution (5 mg/ml) followed by incubation at 37° C. under 5% CO2 for 2 h. PPs were collected for whole-mount staining, preparation of frozen sections, and immunofluorescence staining.

[1] = tested on: F4/80+ macrophages / CD34+ cells in the bone marrow; conditions: mouse, in vivo; cited from earlier work
[2] = tested on: F4/80+ macrophages / CD34+ cells in the bone marrow; conditions: mouse, in vivo, po
[3] = tested on: GP2+M cell (M-like cells); experiment: In vitro M-cell-like model (Caco-2 / Raji B co-culture on transwell inserts); format: cell-based, human; conditions: confocal microscopy
Description: Caco-2 cells were grown in flasks in 10% (v/v) fetal calf serum DMEM at 37° C. under a 10% CO2 water-saturated atmosphere. Caco-2 cells were grown on Transwell polyester inserts (0.3 μm pore size, 12 mm diameter, Corning Costar) coated with 100 μg/mL matrigel basement membrane matrix phenol red-free (Becton Dickinson), prepared in pure cold DMEM without phenol red. Raji B cells (5× 10^5) were resuspended in DMEM and added to the basolateral chamber of 7-day-old Caco-2 cell monolayers. The co-cultures were maintained for 5 days. Mono-culture of Caco-2 cells, cultivated as above but without the Raji B cells, were used as control. […] The transportation function of this in vitro M cell model was first validated using nanoparticle. FITC-RAP (2 mg/mL) in 400 μl DMEM were added to the upper layers of mono-culture and co-culture inserts and then incubated for 2 h at 37° C. under 5% CO2. All inserts were removed, and lower solutions were collected for chromatographic analysis. The lower solution collected from the co-culture group treated with unlabeled RAP was further used to treat RAW264.7 cells in a 96-well plate for 24 h, and the supernatants were sampled for IL-6 and IL-12 detection using ELISA kits.
Three co-culture and mono-cultures inserts were used to detect the presence of M-like cells by immunofluorescence. […]

[4] = Dynamic distribution of FITC-labeled polysaccharides in the gastrointestinal system and organs of mice after gavage; format: in vivo; conditions: 0 to 5 h after gavage
Description: FTIC-RAP (10 mg in 1 mL distilled water) was orally administrated to each mouse (n=6). After the mice were sacrificed at 0, 1, 2, 3, 4, and 5 h after oral administration, blood and major tissues, including liver, spleen, kidney, stomach, small intestine, mesenteric lymph nodes (MLN), Peyer's patches (PPs), caecum, and colon, were collected and imaged using an IVIS Lumina XR in vivo imaging system (PerkinElmer) immediately. The molecular size of FITC-RAP was monitored using high-performance gel-permeation chromatography. For Western blotting (WB), PPs from different groups were collected at other time points (0, 1, 2, 3, and 4 h after oral administration) and prepared for WB. For ELISA assay, PPs were collected 24 hours after RAP treatment, then homogenized and centrifugated at 15,000 rpm for 10 min to obtain the supernatant for cytokine production assessment using ELISA kits. Similarly, the dynamic distribution of FITC-DOP control in MLN and PPs was investigated.
(§1) The tissues collected from the above dynamic distribution analysis were homogenized using a 3-fold volume of 0.1 mol/L phosphate buffer (pH 7.4) and centrifuged at 15,000 rpm for 10 min. Especially, the PP collected from the ligated loop assay model were homogenized using 200 μL PBS and centrifuged at 15,000 rpm for 10 min. The supernatant was collected and stored at −20° C. for chromatographic analysis. The separation was achieved on a TSK GMPWXL column (164× 7.8 mm i.d., 10 μm) system operated at 40° C. using an Agilent-1100 HPLC system equipped with FLD. Ammonium acetate aqueous solution (20 mM) was used as a mobile phase at a flow rate of 0.6 mL/min. The excitation wavelength and emission wavelength of FLD were 495 and 515 nm, respectively.
The intestinal contents of BALB/C mice that had received oral doses of RAP (100 mg/kg/mice) were collected at 0, 1, 2, 3, 4, 5 h after oral administration (n=6 each group) for carbohydrates detection by the phenol-sulfuric acid method. […] The plate was then cooled to RT and wiped dry to detect at A490 nm by a microplate reader. […]

GP2+M cells of PPs = experiment: Ligated intestinal loop assay with FITC-RAP; format: in vivo, C57BL/6 mice
Description: as §1
C57BL/6 wild-type (WT) mice, and GP2^−/− C57BL/6 mice were anesthetized using isoflurane. To prepare ligated intestinal loops, incision was made near the linea alba of the abdomen to expose the small intestine. FITC-RAP (10 mg/mL) in 100 μl PBS was injected into the ligated intestinal loop. The mice were kept under anesthesia for 1 h after the injection. PPs were excised and rinsed with PBS 5 times. The cleaned PPs were photographed using an IVIS Lumina XR and then processed for HPGPC-FLD analysis, whole-mount staining, sectioning, and further microscopic analysis.
Frozen sections of PPs from the ligated loop assay were washed three times with PBS and blocked with 5% normal goat serum in PBS for 1 h. Sections were incubated with anti-mouse GP2, anti-mouse NKM 16-2-4 antibody, or anti-mouse CD11c antibody overnight at 4° C. PPs sections were washed three times with PBS and then treated with Alexa Fluor647 secondary goat anti-rabbit, […] anti-rat antibodies for 1 h at RT, followed by three consecutive PBS washes. The cell nuclei were stained with 1 μg/mL 4′,6-diamidino-2-phenylindole (DAPI) for 15 min. Sections were washed three times with PBS and mounted with an anti-fade mounting medium. Images were captured with a Leica TCS SP8 confocal laser scanning microscope.
For whole-mount staining, mouse PPs were isolated from the small intestine and washed 3 times with 1×ice-cold PBS. The PPs were fixed in 4% paraformaldehyde overnight at 4° C. and then permeabilized with 0.1% Triton X-100 for 30 min. PPs were blocked with 5% normal goat serum in PBS for 1 h. A primary rat anti-mouse glycoprotein 2 (GP2) and 1 μg/ml DAPI in PBS were used to incubate PPs for 1 h at RT, followed by rinsing 3×5 mins with PBS. The second goat anti-rat IgG antibody conjugated with Alexa647 was further stained for 1 h at RT. PPs were washed 3×5 mins with PBS and mounted with the anti-fade reagent. Images were analyzed and captured by a confocal laser microscope (SP8, Leica Microsystems).
For the detection of RAP-induced immune responses, tumor tissues and PPs were minced into small pieces and grounded with a syringe plug. For the isolation and identification of M cell, PPs and small intestine segments collected from FITC-RAP-treated mice were incubated in PBS with 0.5 mM EDTA and stirred at 37° C. for 20 min. For the isolation and detection of dendritic cells, PPs collected from WT mice and GP2--mice were ground with a syringe plug. Tissues and cells were collected and rinsed with ice-cold PBS at 400 g for 5 min, followed by filtering through a 70 μm filter. Single cell suspensions were prepared for antibody staining. Cells were incubated with antibodies or the matching isotypes for 25 min at RT. The stained cells were rinsed twice and re-suspended in PBS and analyzed by FACSAria III (BD Biosciences). Data analysis was performed with FlowJo V10 software.

[5] = C57BL/6 wild-type mice, 1 hr after injection

Substance: FITC-RAP: RAP labeled with fluorescein isothiocyanate isomer I (FITC)
- co-localization of FITC-RAP puncta with GP2 (human GP2+M cells; human PP domes, whole-mount staining): most of which were positive for GP2
- transport into human PPs by M cells (human GP2+M cells; human distal ileum explants, 5 mg/ml, 2 h): could be transported into PPs
- binding to CD34+ cells in the bone marrow [1]: binding with CD34+ cells in the bone marrow
- binding to F4/80+ macrophages in the bone marrow [2]: could also bind
- internalization by GP2+M cell in co-culture inserts [3]: internalized by GP2+M cell
- fluorescence in the liver, kidney, spleen, mesenteric lymph nodes (MLN), and circulation [4]: no detectable increase
- integrity in the caecum and colon (gel permeation chromatography) ([4]; 100 mg/kg): immediately degraded
- integrity in the small intestine (gel permeation chromatography) ([4]; 100 mg/kg): remained intact in the small intestine for several hours
- integrity in PPs (HPGPC-FLD) (GP2+M cells of PPs; [5]): undegraded form
- localization in gut loop (whole animal imaging) (GP2+M cells of PPs; [5]): concentrated in regions associated with PPs
- positive signals of FITC-RAP in PPs, GP2-/- versus WT mice (GP2+M cells of PPs; GP2-/- mice, IVIS imaging, HPGPC-FLD): significantly decreased
- internalization into M cells (whole-mount confocal images) (GP2+M cells of PPs; wild-type mice): internalized into M cells
- uptake by GP2+M cells versus other intestinal epithelial cells (flow cytometry) (GP2+M cells of PPs; wild-type mice): GP2+M cells instead of other intestinal epithelial cells accumulated FITC-RAP
- co-localization with GP2 receptors on the M cell apical surface (frozen sections) (GP2+M cells of PPs; wild-type mice, confocal microscopy): precisely co-localized
